The values that follow come from PMC10876603.

The target of this test is microtubules (polymerised α/β-tubulin) (UniProt Q6B856).
Chain of UniProt Q6B856 (Q6B856 whole entry, looked up): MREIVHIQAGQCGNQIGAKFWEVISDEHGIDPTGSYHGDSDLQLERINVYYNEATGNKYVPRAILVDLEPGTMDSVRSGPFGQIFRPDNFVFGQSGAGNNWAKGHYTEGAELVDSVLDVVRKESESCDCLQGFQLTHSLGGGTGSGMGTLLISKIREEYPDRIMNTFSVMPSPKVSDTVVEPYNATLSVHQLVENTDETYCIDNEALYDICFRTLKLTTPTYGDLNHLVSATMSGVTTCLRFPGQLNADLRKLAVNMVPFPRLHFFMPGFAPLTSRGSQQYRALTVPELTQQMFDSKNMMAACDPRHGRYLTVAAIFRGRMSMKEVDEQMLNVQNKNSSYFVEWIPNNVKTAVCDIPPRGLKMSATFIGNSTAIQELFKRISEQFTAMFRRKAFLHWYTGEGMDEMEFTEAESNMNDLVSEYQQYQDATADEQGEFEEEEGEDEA

“human CEN subcomplex with wild-type Borealin (CEN-Borealin^wt) (from UniProt Q9NQS7 1-58; O15392 1-142; Q53HL2 1-280)” returned a width of bundles of GMpCpp-stabilized rhodamine-labeled MTs (100 nM) after 2 min with 4 μM CEN, TIRF microscopy (single GMpCpp MTs measure 0.34 μm) of 0.46 μm.
